Laboratory results taken from publication PMC3386781.
Numbering of substitutions follows the chain as printed. In names and notes the source's numbering stands.

B1: AtHTMT1 (AtHOL1; halide/thiocyanate methyltransferase, HTMT) (Arabidopsis thaliana) (protein)
chain: MAEEQQNSDQSNGGNVIPTPEEVATFLHKTVEEGGWEKCWEEEITPWDQGRATPLIVHLVDTSSLPLGRALVPGCGGGHDVVAMASPERFVVGLDISESALAKANETYGSSPKAEYFSFVKEDVFTWRPTELFDLIFDYVFFCAIEPEMRPAWAKSMYELLKPDGELITLMYPITDHVGGPPYKVDVSTFEEVLVPIGFKAVSVEENPHAIPTRKGKEKLGRWKKIN
B2: AtHTMT1 (AtHOL1; halide/thiocyanate methyltransferase, HTMT) (Arabidopsis thaliana; V23C) (protein)
chain: B1 chain with V23C
B3: AtHTMT1 (AtHOL1; halide/thiocyanate methyltransferase, HTMT) (Arabidopsis thaliana; Y172F) (protein)
chain: B1 chain with Y172F

These proteins were tested on N#CS (assay: purified protein). Conditions: co-substrate SAM; tag removed.

**Q.** B1 was tested. Which Km did it give?
**A.** 0.099 ± 0.020 mM

**Q.** And the Vmax?
**A.** 0.0436 µmol/min/mg

**Q.** For B2, which Km is on record?
**A.** 0.103 ± 0.009 mM

**Q.** And the Vmax?
**A.** 0.0434 µmol/min/mg

**Q.** Which results are given for B3?
**A.** Km: 0.141 ± 0.009 mM; Vmax: 0.046 µmol/min/mg

These proteins were tested on Br (assay: purified protein). Conditions: co-substrate SAM; tag removed.

**Q.** B1 was tested. Which Km did it give?
**A.** 24.87 ± 2.785 mM

**Q.** What about the Vmax of the same protein?
**A.** 0.0114 µmol/min/mg

**Q.** For B2, which Km is on record?
**A.** 21.06 ± 1.883 mM

**Q.** What about the Vmax of the same protein?
**A.** 0.0124 µmol/min/mg

**Q.** Which results are given for B3?
**A.** Km: 30.16 ± 2.942 mM; Vmax: 0.0114 µmol/min/mg
